We go through 84 variants from the RNAGym collection of RNA variant scans (doi:10.1093/molbev/msab373).

To fix the notation:
B1: Azoarcus group I ribozyme (parent)
chain: GUGCCUUGCGCCGGGAAACCACGCAAGGGAUGGUGUCAAAUUCGGCGAAACCUAAGCGCCCGCCCGGGCGUAUGGCAACGCCGAGCCAAGCUUCGGCGCCUGCGCCGAUGAAGGUGUAGAGACUAGACGGCACCCACCUAAGGCAAACGCUAUGGUGAAGGCAUAGUCCAGGGAGUGGCGAAAGUCACACAAACCGG

The data set covers variants of B1. The data set can be described thus: reverse-splicing fitness (ratio to wild type); higher = more active; in vitro selection; Mg2+ level not given. Put shortly:
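An in vitro group I ribozyme library with randomized positions was T7-transcribed and gel-purified. In triplicate, 10 pmol RNA in EPPS pH 7.5 was reacted with 50 pmoles of a 30-nt RNA substrate for 1 h at 37 °C across several added MgCl2 levels (1–48 mM), then stopped with EDTA. Products were reverse transcribed from a substrate-complementary primer, PCR-amplified and sequenced (HiSeq 4000). Fitness is a variant's read proportion after selection over that before, normalised to wild type.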
Turning to C82U A111C A120G C169A U176A, the reverse-splicing fitness was found to be 0.0141.
For C82U A111C A120G C169A U176C, the reverse-splicing fitness is 0.019.
For C82U A111C A120G C169A U176G, the reverse-splicing fitness was found to be 0.00418.
The result for C82U A111C A120G U176G reads 0.00514; that for C82U A111C A120G U176A, 0.0155; that for C82U A111C A120G U176C, 0.02.
For C82U A111C A120G C150G C169G U176G the value was 0.00455; for C82U A111C A120G C150G C169G U176A, 0.00584.
C82U A111C A120G C150G C169G U176C: the reverse-splicing fitness was 0.00488.
For C82U A111C A120U A145C C150G U176G the value was 0.00239; for C82U A111C A120U A145C C150G U176C, 0.00485.
The result for C82U A111C A120U A145C C150G U176A reads 0.00275.
Regarding C82U A111C A120U A145C C150A U176G, the reverse-splicing fitness was 0.00265.
Turning to C82U A111C A120U A145C C150A U176C, the reverse-splicing fitness turned out to be 0.00397.
Regarding C82U A111C A120U A145C C150A U176A, the reverse-splicing fitness amounted to 0.00307.
The result for C82U A111C A120G C150G C169U U176G reads 0.00505; that for C82U A111C A120G C150G C169U U176A, 0.00853; that for C82U A111C A120G C150G C169U U176C, 0.0121.
On to C82U A111C A120G C169G, for which the reverse-splicing fitness was determined as 0.0104.
For the variant C82U A111C A120G C169A, the reverse-splicing fitness turned out to be 0.00844.
For C82U A111C A120G C169U the value was 0.0077; for C82U A111C A120U A145G C150G C169U U176C, 0.00661; for C82U A111C A120U A145G C150G C169U U176A, 0.0084.
As for C82U A111C A120U A145G C150G C169U U176G, the reverse-splicing fitness came out at 0.00411.
The result for C82U A111C A120U A145C C150G C169G reads 0.00351; that for C82U A111C A120U A145C C150G C169A, 0.00271.
Consider C82U A111C A120U A145C C150G C169U, for which the reverse-splicing fitness is 0.00396.
On to C82U A111C A120G C150A C169A U176G, for which the reverse-splicing fitness was 0.00529.
For C82U A111C A120G C150A C169A U176C the value was 0.0186; for C82U A111C A120G C150A C169A U176A, 0.0163.
For C82U A111C A120U A145C C150A C169A the value was 0.00255; for C82U A111C A120U A145C C150A C169U, 0.00301; for C82U A111C A120U A145C C150A C169G, 0.00233.
For C82U A111C A120U A145G C150U C169G U176A the value was 0.00475.
Regarding C82U A111C A120U A145C C169U U176C, the reverse-splicing fitness was 0.00263.
As for C82U A111C A120U A145C C169U U176G, the reverse-splicing fitness is 0.00205.
Turning to C82U A111C A120U A145C C169U U176A, the reverse-splicing fitness came to 0.00335.
For C82U A111C A120U A145C C150G C169G U176A the value was 0.0028; for C82U A111C A120U A145C C150G C169G U176G, 0.00241; for C82U A111C A120U A145C C150G C169G U176C, 0.00262.
The result for C82U A111C A120G C150A C169G U176G reads 0.00479.
The result for C82U A111C A120G C150A C169G U176C reads 0.0202; that for C82U A111C A120G C150A C169G U176A, 0.0168; that for C82U A111C A120G C150A U176C, 0.0182.
For C82U A111C A120G C150A U176G, the reverse-splicing fitness turned out to be 0.00579.
The result for C82U A111C A120G C150A U176A reads 0.0152; that for C82U A111C A120U A145C C150A C169G U176A, 0.00308.
With C82U A111C A120U A145C C150A C169G U176C, the reverse-splicing fitness turned out to be 0.00318.
The result for C82U A111C A120U A145C C150A C169G U176G reads 0.00223.
The result for C82U A111C A120U A145G C150G C169G reads 0.00651.
The result for C82U A111C A120U A145G C150G C169A reads 0.00772; that for C82U A111C A120U A145G C150G C169U, 0.0067.
As to C82U A111C A120U A145C C150G C169U U176C, the reverse-splicing fitness stood at 0.00284.
With C82U A111C A120U A145C C150G C169U U176G, the reverse-splicing fitness was found to be 0.00217.
Take C82U A111C A120U A145C C150G C169U U176A: the reverse-splicing fitness was 0.00332.
The result for C82U A111C A120U A145C C150U C169G U176C reads 0.00273.
The result for C82U A111C A120U A145C C150U C169G U176A reads 0.003; that for C82U A111C A120U A145C C150U C169G U176G, 0.00216.
As to C82U A111C A120G C150U C169U, the reverse-splicing fitness came to 0.00841.
For C82U A111C A120G C150U C169A the value was 0.00877; for C82U A111C A120G C150U C169G, 0.00848.
Consider C82U A111C A120U A145G C150A U176A, for which the reverse-splicing fitness worked out at 0.00653.
For C82U A111C A120U A145G C150A U176G the value was 0.00319; for C82U A111C A120U A145G C150A U176C, 0.00717.
For the variant C82U A111C A120U A145C C150U C169U U176C, the reverse-splicing fitness is 0.00255.
The result for C82U A111C A120U A145C C150U C169U U176G reads 0.00224.
Regarding C82U A111C A120U A145C C150U C169U U176A, the reverse-splicing fitness is 0.00314.
For C82U A111C A120U A145G C150A, the reverse-splicing fitness was 0.00865.
For C82U A111C A120U A145G C150G the value was 0.00805.
For C82U A111C A120U A145G C150U, the reverse-splicing fitness was 0.0233.
The result for C82U A111C A120G C150U C169A U176A reads 0.0142; that for C82U A111C A120G C150U C169A U176C, 0.0113; that for C82U A111C A120G C150U C169A U176G, 0.00479.
As for C82U A111C A120U A145G C150U C169A, the reverse-splicing fitness stood at 0.00649.
For C82U A111C A120U A145G C150U C169G the value was 0.00549; for C82U A111C A120U A145G C150G C169A U176C, 0.00788; for C82U A111C A120U A145G C150G C169A U176A, 0.0114.
As to C82U A111C A120U A145G C150G C169A U176G, the reverse-splicing fitness was found to be 0.00495.
For C82U A111C A120G C150A C169G the value was 0.00808; for C82U A111C A120G C150A C169U, 0.00789; for C82U A111C A120G C150A C169A, 0.0101.
As to C82U A111C A120G C150G C169G, the reverse-splicing fitness was 0.00667.
For C82U A111C A120G C150G C169U the value was 0.00766; for C82U A111C A120G C150G C169A, 0.00813.
